Results as given in patent publication US20060257938A1, “Method of screening for drugs that block ligand binding to a lipid binding protein” (priority 2005, published 2006).
Positions count from the first letter of the chain named.

B1: 72G 73W (protein, listed as Rattus norvegicus)
chain: AFDGTWKVDRNENYEKFMEKMGINVVKRKLGAHDNLKLTITQEGNKFTVKESSNFRNIDVVFELGVDFAYSGWDGTELTGTWTMEGNKLVGKFKRVDNGKELIAVREISGNELIQTYTYEGVEAKRIFKKE
modifications: PEPTIDE (1)...(131) wild-type rat intestinal fatty acid binding protein
B2: 72S 73L 74A (protein, listed as Rattus norvegicus)
chain: B1 chain with G72S, W73L, D74A
modifications: PEPTIDE (1)...(131) wild-type rat intestinal fatty acid binding protein
B3: 72T 73Q 74A (protein, listed as Rattus norvegicus)
chain: B1 chain with G72T, W73Q, D74A
modifications: PEPTIDE (1)...(131) wild-type rat intestinal fatty acid binding protein
B4: 72T 73V 74S (protein, listed as Rattus norvegicus)
chain: B1 chain with G72T, W73V, D74S
modifications: PEPTIDE (1)...(131) wild-type rat intestinal fatty acid binding protein
B5: 72T 73V 74V (protein, listed as Rattus norvegicus)
chain: B1 chain with G72T, W73V, D74V
modifications: PEPTIDE (1)...(131) wild-type rat intestinal fatty acid binding protein
B6: 72S 73M 74A (protein, listed as Rattus norvegicus)
chain: B1 chain with G72S, W73M, D74A
modifications: PEPTIDE (1)...(131) wild-type rat intestinal fatty acid binding protein
B7: 72A 73P 74V (protein, listed as Rattus norvegicus)
chain: B1 chain with G72A, W73P, D74V
modifications: PEPTIDE (1)...(131) wild-type rat intestinal fatty acid binding protein
B8: 72W 73T 74G (protein, listed as Rattus norvegicus)
chain: B1 chain with G72W, W73T, D74G
modifications: PEPTIDE (1)...(131) wild-type rat intestinal fatty acid binding protein
B9: 72T 73V 74N (protein, listed as Rattus norvegicus)
chain: B1 chain with G72T, W73V, D74N
modifications: PEPTIDE (1)...(131) wild-type rat intestinal fatty acid binding protein
B10: 72T 74I (protein, listed as Rattus norvegicus)
chain: B1 chain with G72T, W73A, D74I
modifications: PEPTIDE (1)...(131) wild-type rat intestinal fatty acid binding protein
B11: 72S 73V 74V (protein, listed as Rattus norvegicus)
chain: B1 chain with G72S, W73V, D74V
modifications: PEPTIDE (1)...(131) wild-type rat intestinal fatty acid binding protein
B12: 72T 73V 74A (protein, listed as Rattus norvegicus)
chain: B1 chain with G72T, W73V, D74A
modifications: PEPTIDE (1)...(131) wild-type rat intestinal fatty acid binding protein
B13: 18V 31A 73W 72A (protein, listed as Rattus norvegicus)
chain: B1 chain with M18V, G31A, G72A
modifications: PEPTIDE (1)...(131) wild-type rat intestinal fatty acid binding protein
B14: 72T 73W 74L (protein, listed as Rattus norvegicus)
chain: B1 chain with G72T, D74L
modifications: PEPTIDE (1)...(131) wild-type rat intestinal fatty acid binding protein
B15: 72T 73V 74L (protein, listed as Rattus norvegicus)
chain: B1 chain with G72T, W73V, D74L
modifications: PEPTIDE (1)...(131) wild-type rat intestinal fatty acid binding protein
B16: 21Y 78I 102I 72A (protein, listed as Rattus norvegicus)
chain: B1 chain with M21Y, G72A, W73A, L78I, L102I
modifications: PEPTIDE (1)...(131) wild-type rat intestinal fatty acid binding protein
B17: 72A 73W 74V (protein, listed as Rattus norvegicus)
chain: B1 chain with G72A, D74V
modifications: PEPTIDE (1)...(131) wild-type rat intestinal fatty acid binding protein

Experiment: Probe fluorescence ratio response to arachidonic acid relative to ADIFAB2
Format: binding
Conditions: arachidonic acid; response relative to ADIFAB2
In short: (§1)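 Each fatty acid's response was expressed relative to ADIFAB2, the rI-FABP-L72A probe, as ΔR/ΔRreference. ΔR is the change in the background-corrected two-wavelength intensity ratio R=Fλ1/Fλ2 from its analyte-free baseline R0. Emission was read near about 420-480 nm for unbound and about 495-580 nm for FFA-bound probe.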

Molecule	DR/DR AA
B1	2.260
B2	3.336
B3	2.392
B4	2.540
B5	3.237
B6	2.759
B7	2.354
B8	2.808
B9	2.484
B10	2.502
B11	2.712
B12	2.180
B13	1.761
B14	2.721
B15	2.774
B16	3.536
B17	1.768

Experiment: Probe fluorescence ratio response to stearic acid relative to ADIFAB2
Format: binding
Conditions: response relative to ADIFAB2
Description: (§2) In an alternate preferred embodiment, the protein is rI-FABP that has Ala substituted for Leu at position 72 (rI-FABP-L72A) with the resulting probe named ADIFAB2. […] Other probes useful in embodiments of the invention are shown in Tables 1-6 and are also described in U.S. application Ser. No. 11/085,792, filed Mar. 21, 2005 which is incorporated herein by reference. The indicated substitutions are with reference to the ADIFAB protein of SEQ ID NO: 2.
(§3) ADIFAB2 also has an altered spectral response, making it especially useful for measurements of FFAu in blood samples (Apple et al, Clinical Proteomics, (2004) 1:41-44, U.S. patent application Ser. No. 10/670,958). The wavelengths at the maximum intensities emitted by these fluorescently-labeled I-FABP's in the absence of FFA is about 420 to 480 nm. The emission wavelengths at the maximum intensities emitted by these fluorescently-labeled I-FABP's with FFA bound are between about 495 to 580 nm. Experiments typically involve measuring the fluorescence response within both emission maxima or at wavelengths for which the effect of interfering molecules such as hemoglobin can be eliminated as described in U.S. application Ser. No. 10/670958 and PCT/US2004/030521 and the calculation of the ratio ‘R’ of the two fluorescence intensities. The baseline value for this ratio, measured in the absence of analyte, is designated R0.
(§4) The intensity ratio (“R” value) is determined as follows. The ratio is calculated using the following formula: R=Fλ1/Fλ2 wherein, Fλ1 is the measured fluorescence intensities (intensity of sample with probe present minus intensity of sample without probe present) at wavelength 1 and Fλ2 is the measured fluorescence intensities (intensity of sample with probe present minus intensity of sample without probe present) at wavelength 2. Then, for a given probe, ΔR, the difference in R value between the measurement in the presence of the test compound (agent) and in the absence of the test compound (agent), is calculated as follows: ΔR=R+agent−R0 In some embodiments, the ΔR value may then be compared to some reference, for example, an agent with a known affinity for a given probe, by ΔR/ΔRreference. Measurements of fluorescence intensities are obtained using standard techniques.

Molecule	DR/DR SA
B1	0.294
B2	2.574
B3	2.318
B4	2.195
B5	1.918
B6	1.776
B7	1.178
B8	1.040
B9	1.942
B10	1.806
B11	1.058
B12	1.146
B13	0.722
B14	1.217
B15	1.411
B16	2.774
B17	0.602

Experiment: Probe fluorescence ratio response to linolenic acid relative to ADIFAB2
Format: binding
Conditions: response relative to ADIFAB2
In short: as §1

Molecule	DR/DR LNA
B1	3.637
B2	3.322
B3	2.850
B4	2.579
B5	3.618
B6	2.567
B7	2.845
B8	3.394
B9	2.362
B10	3.169
B11	3.088
B12	2.597
B13	2.770
B14	3.009
B15	3.508
B16	2.454
B17	2.752

Experiment: Probe fluorescence ratio response to oleic acid relative to ADIFAB2
Format: binding
Conditions: response relative to ADIFAB2
In short: as §1

Molecule	DR/DR OA
B1	1.106
B2	3.495
B3	3.136
B4	2.670
B5	3.166
B6	2.443
B7	2.187
B8	2.514
B9	2.491
B10	2.660
B11	2.556
B12	1.950
B13	1.738
B14	2.340
B15	2.832
B16	3.424
B17	1.574

Experiment: Probe fluorescence ratio response to linoleic acid relative to ADIFAB2
Format: binding
Conditions: response relative to ADIFAB2
In short: as §1

Molecule	DR/DR LA
B1	2.698
B2	3.455
B3	3.163
B4	2.611
B5	3.502
B6	2.470
B7	2.735
B8	3.099
B9	2.407
B10	3.156
B11	3.085
B12	2.435
B13	2.540
B14	2.819
B15	3.165
B16	2.879
B17	2.338

Experiment: Probe fluorescence ratio response to palmitoleic acid relative to ADIFAB2
Format: binding
Conditions: response relative to ADIFAB2
Description: as §2, §3, §4

Molecule	DR/DR POA
B1	4.082
B2	3.923
B3	3.632
B4	2.909
B5	4.015
B6	2.854
B7	3.613
B8	4.105
B9	2.816
B10	3.410
B11	3.322
B12	3.011
B13	3.184
B14	3.574
B15	3.642
B16	2.089
B17	3.856

Experiment: Probe fluorescence ratio response to palmitic acid relative to ADIFAB2
Format: binding
Conditions: response relative to ADIFAB2
In short: as §1

Molecule	DR/DR PA
B1	2.968
B2	3.293
B3	3.473
B4	2.629
B5	2.987
B6	2.524
B7	2.406
B8	2.934
B9	2.250
B10	2.476
B11	2.091
B12	2.362
B13	2.218
B14	2.727
B15	2.674
B16	1.870
B17	2.525
